# Laboratory results as given in patent US20030144191.
# B1: TRP-PLIK2-GST fusion protein (TRP-PLIK2 kinase domain fused to GST) (protein)
# chain: PMTMSSPLSQAKIMQTGGGYVNWAFSEGDETGVFSIKKKWQTCLPSTCDSDSSRSEQHQKQAQDSSLSDNSTRSAQSSECSEVGPWLQPNTSFWINPLRRYRPFARSHSFRFHKEEKLMKICKIKNLSGSSEIGQGAWVKAKMLTKDRRLSKKKKNTQGLQVPIITVNACSQSDQLNPEPGENSISEEEYSKNWFTVSKFSHTGVEPYIHQKMKTKEIGQCAIQISDYLKQSQEDLSKNSLWNSRSTNLNRNSLLKSSIGVDKISASLKSPQEPHHHYSAIERNNLMRLSQTIPFTPVQLFAGEEITVYRLEESSPLNLDKSMSSWSQRGRAAMIQVLSREEMDGGLRKAMRVVSTWSEDDILKPGQVFIVKSFLPEVVRTWHKIFQESTVLHLCLREIQQQRAAQKLIYTFNQVKPQTIPYTPRFLEVFLIYCHSANQWLTIEKYMTGEFRKYNNNNGDEITPTNTLEELMLAFSHWTYEYTRGELLVLDLQGVGENLTDPSVIKPEVKQSRGMVFGPANLGEDAIRNFIAKHHCNSCCRKLKLPDLKRNDYSPERINSTFGLEIKIESAEEPPARETGRNSPEDDMQL
protein,measurement,setting,value
B1,"32P incorporation (kinase assay, SDS-PAGE, autoradiography)",Histon,MBP was determined to be a preferred substrate over Histon.
same,"32P incorporation (kinase assay, SDS-PAGE, autoradiography)",MBP,MBP was determined to be a preferred substrate over Histon.
same,"incorporated 32P in the substrate (kinase assay, SDS-PAGE, autoradiography)",MBP,predicted TRP-PLIK2 kinase domain was determined to have kinase activity as demonstrated by the phosphorylated MBP protein
